Numbered stars: 1 amine (or outer) side, 2 acyl side, 3 side chain; on linkers, the order of the positions; unused ones are H or OH. Square brackets hold non-standard residues; d marks the D form. Side chains are listed from the residue outwards. Ends that are not written are not given here. * marks the point of attachment. C18 diacid = O=C(O)CCCCCCCCCCCCCCCCC(=O)*; γGlu = O=C(O)[C@H](CCC(=O)[*:2])N[*:1]; AEEA = NCCOCCOCC(=O)O; Aib = CC(C)(N)C(=O)O
B1: N^ε29-[(4S)-4-carboxy-4-[[(4S)-4-carboxy-4-[[2-[2-[2-[[(4S)-4-carboxy-4-(17-carboxyheptadecanoylamino)butanoyl]amino]ethoxy]ethoxy]acetyl]amino]butanoyl]amino]b … (peptide)
peptide: H[Aib]QGTFTSDLSKYLESRRAREFVQWLLNK([γGlu-γGlu-AEEA-γGlu-C18 diacid])-NH2
modifications: N-terminus assumed
SMILES: CC(C)C[C@H](NC(=O)[C@H](CC(C)C)NC(=O)[C@H](Cc1c[nH]c2ccccc12)NC(=O)[C@H](CCC(N)=O)NC(=O)[C@@H](NC(=O)[C@H](Cc1ccccc1)NC(=O)[C@H](CCC(=O)O)NC(=O)[C@H](CCCNC(=N)N)NC(=O)[C@H](C)NC(=O)[C@H](CCCNC(=N)N)NC(=O)[C@H](CCCNC(=N)N)NC(=O)[C@H](CO)NC(=O)[C@H](CCC(=O)O)NC(=O)[C@H](CC(C)C)NC(=O)[C@H](Cc1ccc(O)cc1)NC(=O)[C@H](CCCCN)NC(=O)[C@H](CO)NC(=O)[C@H](CC(C)C)NC(=O)[C@H](CC(=O)O)NC(=O)[C@H](CO)NC(=O)[C@@H](NC(=O)[C@H](Cc1ccccc1)NC(=O)[C@@H](NC(=O)CNC(=O)[C@H](CCC(N)=O)NC(=O)C(C)(C)NC(=O)[C@@H](N)Cc1c[nH]cn1)[C@@H](C)O)[C@@H](C)O)C(C)C)C(=O)N[C@@H](CC(N)=O)C(=O)N[C@@H](CCCCNC(=O)CC[C@H](NC(=O)CC[C@H](NC(=O)COCCOCCNC(=O)CC[C@H](NC(=O)CCCCCCCCCCCCCCCCC(=O)O)C(=O)O)C(=O)O)C(=O)O)C(N)=O
B2: N^ε16-[(4S)-4-carboxy-4-[[(4S)-4-carboxy-4-[[2-[2-[2-[[(4S)-4-carboxy-4-[[(4S)-4-carboxy-4-(17-carboxyheptadecanoylamino)butanoyl]amino]butanoyl]amino]ethoxy]et … (peptide)
peptide: H[Aib]QGTFTSDLSKYLDK([γGlu-γGlu-AEEA-γGlu-γGlu-C18 diacid])RRAQEFVQWLVKG-NH2
modifications: N-terminus assumed
SMILES: CC(C)C[C@H](NC(=O)[C@H](Cc1ccc(O)cc1)NC(=O)[C@H](CCCCN)NC(=O)[C@H](CO)NC(=O)[C@H](CC(C)C)NC(=O)[C@H](CC(=O)O)NC(=O)[C@H](CO)NC(=O)[C@@H](NC(=O)[C@H](Cc1ccccc1)NC(=O)[C@@H](NC(=O)CNC(=O)[C@H](CCC(N)=O)NC(=O)C(C)(C)NC(=O)[C@@H](N)Cc1c[nH]cn1)[C@@H](C)O)[C@@H](C)O)C(=O)N[C@@H](CC(=O)O)C(=O)N[C@@H](CCCCNC(=O)CC[C@H](NC(=O)CC[C@H](NC(=O)COCCOCCNC(=O)CC[C@H](NC(=O)CC[C@H](NC(=O)CCCCCCCCCCCCCCCCC(=O)O)C(=O)O)C(=O)O)C(=O)O)C(=O)O)C(=O)N[C@@H](CCCNC(=N)N)C(=O)N[C@@H](CCCNC(=N)N)C(=O)N[C@@H](C)C(=O)N[C@@H](CCC(N)=O)C(=O)N[C@@H](CCC(=O)O)C(=O)N[C@@H](Cc1ccccc1)C(=O)N[C@H](C(=O)N[C@@H](CCC(N)=O)C(=O)N[C@@H](Cc1c[nH]c2ccccc12)C(=O)N[C@@H](CC(C)C)C(=O)N[C@H](C(=O)N[C@@H](CCCCN)C(=O)NCC(N)=O)C(C)C)C(C)C

Tests used:
human GLP-1 receptor [1] = target: T1, human GLP-1 receptor (human, UniProt P43220 24-463); test: displacement of 125I-GLP-1(7-36)NH2, membranes with human GLP-1R, SPA
T1 construct: whole, on cells; the potency assay used whole cells (clone FCW467-12A/KZ10-1)
Method: (§1) The receptor binding of each compound to the human GLP-1 receptor was measured in a displacement binding assay. […] Each derivative was added in a series of concentrations to isolated membranes containing the human GLP-1 receptor and displacement of the labelled ligand was monitored. The receptor binding was reported as the concentration at which half of the labelled ligand was displaced from the receptor, the IC₅₀ value.

human glucagon receptor [2] = target: T2, human glucagon receptor (human, UniProt P47871 26-477); test: displacement of 125I-glucagon, membranes with human glucagon receptor, SPA
T2 construct: whole, on cells; the potency assay used whole cells (clone pLJ6'-4-25); also called GlucR; hGCGR
T2 sequence (P47871 26-477): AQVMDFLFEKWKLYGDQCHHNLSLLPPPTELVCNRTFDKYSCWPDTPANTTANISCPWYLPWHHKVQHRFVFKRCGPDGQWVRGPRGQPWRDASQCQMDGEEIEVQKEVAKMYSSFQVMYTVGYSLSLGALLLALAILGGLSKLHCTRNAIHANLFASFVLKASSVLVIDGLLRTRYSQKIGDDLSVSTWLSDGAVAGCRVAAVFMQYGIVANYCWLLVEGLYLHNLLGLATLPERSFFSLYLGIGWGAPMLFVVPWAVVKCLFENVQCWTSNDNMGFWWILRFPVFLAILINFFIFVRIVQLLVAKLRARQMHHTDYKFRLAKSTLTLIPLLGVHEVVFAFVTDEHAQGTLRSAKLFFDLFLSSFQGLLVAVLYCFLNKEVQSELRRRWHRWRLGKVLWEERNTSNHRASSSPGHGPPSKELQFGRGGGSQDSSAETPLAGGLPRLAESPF
Method: as §1, with “human glucagon” for “human GLP-1”, “ligand is” for “ligand was”

human GLP-1 receptor [3] = target: T1, human GLP-1 receptor; test: cell-based or functional assay
human glucagon receptor [4] = target: T2, human glucagon receptor; test: cell-based or functional assay

| Binder | IC50 (human GLP-1 receptor [1]) [nM] | IC50 (human glucagon receptor [2]) [nM] | EC50 GLP-1R, CRE luciferase reporter gene assay in BHK cells (human GLP-1 receptor [3]) [nM] | EC50 GlucR, CRE luciferase reporter gene assay in BHK cells (human glucagon receptor [4]) [nM] |
| --- | --- | --- | --- | --- |
| B1 | 0.4 | 37.7 | 0.004 | 0.136 |
| B2 | 1.6 | 148 | 0.0295 | 1.33 |
